From US20230355533A1, “BIODEGRADABLE POLYCAPROLACTONE CAPSULE FOR ANTIBODY RELEASE AND DEGRADATION” (University Of Cincinnati, priority 2022, published 2023)

What was measured:
TNF-α stimulated HUVECs = experiment: IL-6 ELISA assay; format: cell-based, Human; conditions: Dex 33 μM, 24 h pretreatment, then 20 ng/mL TNF-α 24 h
Experimental: Human primary umbilical vein endothelial cells (HUVECs) were maintained in EBMTM-2 Basal Medium and EGMTM-2 SingleQuots™ Supplements (Lonza, Switzerland). HUVECs were grown in the cell incubator containing 5% CO2 at 37° C. When the cells were grown to 90% confluence, they were inoculated in 24-well plates. Briefly, 0.4 mL of HUVECs suspensions (8×104 HUVECs per well) were seeded in 24-well plates and incubated at 37° C, 5% CO2 for 24 h. […] After 24 h, all the conditions except the medium only were incubated with 20 ng/mL TNF-α for 24 h. […] At the end of experiments, the cell medium was collected and centrifuged at 2,000×g for 10 min to remove the particulate/debris materials. Then, supernatant was collected and stored at −20° C. until used. Each sample was pre-diluted using a standard dilution buffer to keep the sample concentrations within the range of standard curve. The concentration of pro-inflammatory cytokine (IL-6) in the cell culture supernatant was analyzed by the ELISA assay according to the manufacturer's recommendation (Invitrogen® human IL-6 ELISA kit). All tests were done in triplicate.

[1] = Bev permeability across PCL membrane, vertical permeability column; format: physicochemical; conditions: 0.05 PEG PCL membrane, donor 50 mg/mL, area 0.78 cm^2
Experimental: The permeability experiments were conducted using a vertical permeability column. The donor side was filled with 200 μL of 50 mg/mL Bev solution and the receiver side was filled with 5 mL of PBS. […] The membranes were soaked in DI water for 24 h to remove the PEG and then placed in the column without drying. Once the membrane was securely placed between the donor and receiver sections, 200 μL of the donor solution was loaded and then the opening was sealed off to reduce evaporation altering the concentration of the donor and receiver solutions. 500 μL of the receiver and 10 μL of the donor solution were removed every 72 h to check the concentration using UV-Vis. The removed solutions were replaced by fresh PBS for the receiver solution and the donor was replaced by fresh donor solution or completely replaced depending on the remaining concentration.
After 12 days, the mass of Bev that permeated the membrane was plotted against time to get dQ/dt in the equation: […]
where Ci is the initial concentration (donor solution concentration), P is the permeability coefficient, and A is the area of the exposed membrane.

[2] = Bev partition coefficient in PCL membrane; format: physicochemical; conditions: equilibrium solution of 20 mg/mL
Experimental: The partition coefficient K is required for the release kinetics model equation. […] The membranes were soaked in 200 μL of PBS for 48 h. After 48 h the membranes were blotted with a Kimwipe to remove surface liquid and then weighed to determine the wet mass of the membrane. The membranes were then dried overnight in a chemical hood. The dry membranes were then placed in 200 μL of an equilibrium Bev solution for 72 h to allow the membranes to absorb the Bev from the solution. After 72 h the membranes were removed from the equilibrium, blotted, and placed in 200 μL of fresh PBS to extract Bev for 48 h. This extraction process was repeated until the amount extracted was 10% of the first extraction. The remaining equilibrium solution and all extraction solutions were analyzed using UV-Vis to determine the Bev concentration. The partition coefficient was then determined using the equation below.
where Me is the total mass extracted, W is the wet mass of the membrane, Meq is the amount of Bev left in the equilibrium solution, V is the volume of water left in the equilibrium solution, and ρ is the density of the solution.

[3] = Bev drug release kinetics model (cylindrical reservoir); conditions: calculated from Stokes-Einstein diffusion coefficient and hindrance factor
Text: The equation used to model the release profile is
where Mt is the mass released at time t, M∞, is the mass loaded in the implant, Ri is the inner radius of the implant, Ro is outer radius of the implant, De is the effective diffusivity, K is the partition coefficient, and L is the length of the implant. This equation models Fick's law of diffusion of molecules from the lumen of a cylindrical implant through a membrane wall. Ro, Ri, and L can all be measured from the implants, but De and K must be determined experimentally or calculated from other parameters that can be determined experimentally to create this model. K may be determined experimentally, as described herein. To find De, permeability, Stokes-Einstein diffusion, hindrance factor for diffusion, hindrance factor, and the restrictive factor all were determined experimentally or calculated.
The permeability of Bev across the PCL membrane can be described by […]
where kB is the Boltzmann constant, T is the temperature in Kelvin, η is the viscosity of water at 25° C., and r is the hydrodynamic radius of Bev. The overall hindrance factor for diffusion, H, is expressed as: […]
where λ is the ratio of permeant radius to pore radius and Kt, the hinderance factor, is calculated by: […]
The last value that needs to be determined for Equation 3 is effective diffusivity (De). De can be determined from the equation: […]

Substance | IL-6 level in cell culture medium compared to TNF-α stimulated HUVECs (condition 2) (TNF-α stimulated HUVECs) | Bev permeated across the membrane [1] | partition coefficient K [2] | effective diffusion coefficient De [3]
Dexamethasone sodium phosphate [free Dex] | not significantly decreased | – | – | –
Bevacizumab | – | 42.5 µg/day | 0.515 | 5.59 × 10^−6 cm^2/day
